In patent US20080292620A1 (Novartis, published 2008):
Where a chain is given by its changes, count along the chain named. Blank lines part the entries; values can stand above or below the binder they belong to.

Assays:
[1] = molecular target: T1, recombinant extracellular domain (ECD) of the human prolactin receptor (PRLR) (human, UniProt P16471 25-234); experiment: Biacore SPR, antibody captured on Protein A/G, kinetic titration of PRLR ECD, 1:1 Langmuir
T1 construct: also called PRLR ECD; Human PRLR; not shown: His tag
T1 sequence: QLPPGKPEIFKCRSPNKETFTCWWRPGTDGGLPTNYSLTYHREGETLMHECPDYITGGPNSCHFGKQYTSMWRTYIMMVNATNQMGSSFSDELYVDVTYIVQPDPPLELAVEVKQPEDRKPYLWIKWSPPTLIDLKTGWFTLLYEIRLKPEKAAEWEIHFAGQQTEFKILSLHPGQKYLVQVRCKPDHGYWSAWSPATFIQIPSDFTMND
Procedure: (§1) Affinity of the chimerized and Human Engineered™ antibodies determined by Biacore analysis. Briefly, a CM5 sensor chip (Biacore) immobilized with Protein A/G (Pierce) via NHS/EDC was used to capture approximately 600 RU of antibody on the chip surface. Five concentrations of PRLR ECD beginning at 5 ug/mL (185 nM) and serially diluted at 5× dilution to 0.3 nM were injected from lowest to highest concentration in the kinetic titration injection mode, and 15 minutes of dissociation data was collected. The experiments were double-referenced, i.e. an adjacent flow cell response was subtracted automatically, and the response from a buffer injection experiment was subtracted from the experimental data set. Kinetic and derived parameters (kₐ, kd and KD) were determined by fitting to a 1:1 Langmuir model using BiaEval software customized to the kinetic titration injection mode. Affinity measurements of both chimeric and all Human Engineered™ antibodies against human and cynomolgus PRLR ECD are summarized in Table 9 and Table 10.

cynomolgus PRLR ECD [2] = molecular target: T2, cynomolgus PRLR ECD (cynomolgus, UniProt A0A2K5WXK1 25-234); experiment: as above
T2 construct: extracellular domain; also called Cyno PRLR
T2 sequence: T1 sequence with I76V, A110T, I125M, I158T, T207I
Procedure: as §1

[3] = molecular target: T1, recombinant extracellular domain (ECD) …; experiment: Biacore SPR, antibody covalently immobilized on CM4 chip, PRLR ECD 111 to 1.37 nM
cynomolgus PRLR ECD [4] = molecular target: T2, cynomolgus PRLR ECD; experiment: as above
murine PRLR ECD [5] = molecular target: T3, murine PRLR ECD (mouse, UniProt Q08501 20-229); experiment: as above
T3 construct: extracellular domain; also called Mouse PRLR
T3 sequence (looked up): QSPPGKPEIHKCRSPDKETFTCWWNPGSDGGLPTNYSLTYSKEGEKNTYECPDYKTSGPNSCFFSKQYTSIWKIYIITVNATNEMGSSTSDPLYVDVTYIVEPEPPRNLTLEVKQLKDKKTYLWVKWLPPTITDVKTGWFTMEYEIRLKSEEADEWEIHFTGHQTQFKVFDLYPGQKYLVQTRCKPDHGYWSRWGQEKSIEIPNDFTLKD

rat PRLR ECD [6] = molecular target: T4, rat PRLR ECD (rat, UniProt P05710 20-229); experiment: as above
T4 construct: extracellular domain
T4 sequence (looked up): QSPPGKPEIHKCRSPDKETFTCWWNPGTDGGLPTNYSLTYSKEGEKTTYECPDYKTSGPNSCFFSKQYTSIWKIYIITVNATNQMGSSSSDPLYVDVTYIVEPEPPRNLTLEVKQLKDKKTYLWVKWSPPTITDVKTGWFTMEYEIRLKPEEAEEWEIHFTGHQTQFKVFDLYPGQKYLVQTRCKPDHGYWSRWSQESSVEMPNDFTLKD

[7] = molecular target: T1, recombinant extracellular domain (ECD) …; experiment: Biacore 2000 SPR, antibody captured, PRLR ECD injected
[8] = molecular target: T1, recombinant extracellular domain (ECD) …; experiment: Biacore 2000 SPR, antibody captured on Protein A/G, PRLR ECD titrated, 1:1 Langmuir, 25 C
rat PRLR ECD [9] = molecular target: T4, rat PRLR ECD; experiment: Biacore SPR, antibody covalently immobilized on CM4 chip
Procedure: (§2) In order to compare rat and mouse cross reactivity using covalently immobilized antibodies, a CM4 chip was coupled with he.06.642-2 and he.06.275-4 antibodies via standard EDC-NHS amine coupling chemistries according to the recommended protocol from Biacore® Inc. The PRLR ECD injections were performed at five concentrations in a three fold titration series starting at 111 nM and going down to 1.37 nM. Regeneration was performed with Glycine pH3.0. The affinity of all of the HE variants of XHA.06.642 and XHA.06.275 are very similar to the affinity of the parental chimeric antibody. Antibody he.06.642-2 binds to human, mouse and rat PRLR with equivalent affinity.

murine PRLR ECD [10] = molecular target: T3, murine PRLR ECD; experiment: Biacore SPR, antibody covalently immobilized on CM4 chip, PRLR ECD 111 to 1.37 nM; same run as N2: antibody covalently immobilized on CM4, PRLR ECD 111 to 1.37 nM; very weak fitted binding
Procedure: as §2

murine PRLR ECD [11] = molecular target: T3, murine PRLR ECD; experiment: Biacore SPR, antibody covalently immobilized on CM4 chip, PRLR ECD 111 to 1.37 nM; same run as N2: KD about 17.6 uM, far above the top concentration of 111 nM, which the text calls not binding effectively
Procedure: as §2

Kd [3]: 2.6 nM | Kd (cynomolgus PRLR ECD [4]): 38.9 nM | Kd (murine PRLR ECD [5]): 2.7 nM | Kd (rat PRLR ECD [6]): 1.9 nM | Kd [1]: 3.1 nM | Kd (cynomolgus PRLR ECD [2]): 47 nM
B2: he.06.642-2 (antibody, V domains shown)
VH: EVQLVESGGGLVQPGGSLRLSCAVSGFTFSSYGMSWVRQAPGKGLEWVATVSSGGTYTYYPDSVKGRFTISRDNSKNTLYLQMNSLRAEDTAVYYCARHRGNYYATYYYAMDYWGQGTLVTVSS
VL: DIVLTQSPDSLAVSLGERATINCKASKSVSTSGYTYMHWYQQKPGQPPKLLIYLASNRESGVPDRFSGSGSGTDFTLTISPVQAEDVATYYCQHSGELPPSFGQGTKLEIK
notes: Human Engineered

Kd [7]: 7 nM
B8: XPA.06.217 (Fc fusion)
chain 1: EVQLLESGGGLVQPGGSLRLSCAASGFTFSSYAMHWVRQAPGKGLEWVSSISSSSSSIYYADSVKGRFTISRDNSKNTLYLQMNSLRAEDTAVYYCARGGGQQLGAFDIWGQGTLVTV
chain 2: not shown

Kd [1]: 0.43 nM | Kd (cynomolgus PRLR ECD [2]): 1.3 nM
B11: he.06.275-3 (antibody, V domains shown)
VH: DVQLQESGPGLVKPSQTLSLTCTVTGYSITSDYAWNWIRQFPGKKLEWMGYISYSGSTSYNPSLKSRITISRDTSKNQFSLQLNSVTAADTATYFCARDYGYVFDYWGQGTTLTVSS
VL: DVQITQSPSSLSASPGDRITLTCRASKNIYKYLAWYQEKPGKANKLLIYSGSTLHSGIPSRFSGSGSGTDFTLTISSLQPEDFAMYYCQQHNDYPYTFGQGTKLEIK
notes: Human Engineered

Kd [1]: 0.61 nM | Kd (cynomolgus PRLR ECD [2]): 1.9 nM
B12: he.06.275-2 (antibody, V domains shown)
VH: B11 VH with D1Q, T25S, K45G, T93V
VL: B11 VL with A43T, K45N
notes: Human Engineered

Kd [3]: 1.3 nM | Kd (cynomolgus PRLR ECD [4]): 6.4 nM | Kd [1]: 0.52 nM | Kd (cynomolgus PRLR ECD [2]): 1.7 nM | koff (murine PRLR ECD [10]): 0.037 s⁻¹ | kon (murine PRLR ECD [10]): 2100 M⁻¹ s⁻¹ | Kd (murine PRLR ECD [11]): 17600 nM
B13: he.06.275-4 (antibody, V domains shown)
VH: B11 VH with D1Q, T25S, K45G, T93V
VL: B11 VL
notes: Human Engineered
binding result (rat PRLR ECD [9]): no binding (tested: PRLR ECD up to 111 nM)

Second part, the binder before the results:

B1: he.06.642-1 (antibody, V domains shown)
VH: B2 VH with G44R, V93M
VL: B2 VL
notes: Human Engineered
Kd [1]: 2 nM | Kd (cynomolgus PRLR ECD [2]): 31 nM

B3: XPA.06.158 (Fc fusion)
chain 1: EVQLLESGGGLVQPGGSLRLSCAASGFTFSSYGMHWVRQAPGKGLEWVSLISWDGYRTHYADSVKGRFTISRDNSKNTLYLQMNSLRAEDTAMYYCTTGASYHALWGQGTLVTV
chain 2: QSVLTQPPSASGTPGQRVTISCSGSRSNIGNNYVSWYQQLPGTAPKLLIYDDIKRPSGVPDRFSGSKSGTSASLAISGLRSEDEADYYCATWDDSLNGPVFGGGTKLTVL
Kd [7]: 0.7 nM | Kd [8]: 0.7 nM | koff [8]: 7.3e-05 s⁻¹ | kon [8]: 110000 M⁻¹ s⁻¹

B4: XPA.06.147 (Fc fusion)
chain 1: EVQLLESGGGLVQPGGSLRLSCAASGFTFSSYGMHWVRQAPGKGLEWVSAIGGRGVSTYYADSVKGRFTISRDNSKNTLYLQMNSLRAEDTAVYYCARGSNWTHALGFDPWGQGTLVTV
chain 2: not shown
Kd [8]: 9.8 nM | koff [8]: 0.0053 s⁻¹ | kon [8]: 550000 M⁻¹ s⁻¹

B5: XPA.06.141 (Fc fusion)
chain 1: EVQLLESGGGLVQPGGSLRLSCAASGFTFSNSGMHWVRQAPGKGLEWVAAISYDGSNKYYADSVKGRFTISRDNSKNTLYLQMNSLRAEDTAVYYCARADSSGTVDYWGQGTLVTV
chain 2: not shown
Kd [8]: 8.4 nM | koff [8]: 0.00053 s⁻¹ | kon [8]: 63000 M⁻¹ s⁻¹

B6: XPA.06.145 (Fc fusion)
chain 1: EVQLLESGGGLVQPGGSLRLSCAASGFTFSNYGMHWVRQAPGKGLEWVSLISWDGGRTSYTDSVKGRFTISRDNSKNTLYLQMNSLRAEDTAVYYCARGLIGDNWGQGTLVTVSS
chain 2: QSVLTQPPSASGTPGQRVTISCTGSSSNIGAGYDVHWYQQLPGTAPKLLIYDNNKRPSGVPDRFSGSKSGTSASLAISGLRSEDEADYYCAAWDDSLNGWVFGGGTKLTVL
Kd [7]: 10 nM

B7: XPA.06.167 (Fc fusion)
chain 1: EVQLLESGGGLVQPGGSLRLSCAASGFTFGSYGMHWVRQAPGKGLEWVSLISWDGGSTYYADSVKGRFTISRDNSKNTLYLQMNSLRAEDTAVYYCASSISAAATGLDYWGQGTLVTV
chain 2: not shown
Kd [7]: 4 nM

B9: XPA.06.178 (Fc fusion)
chain 1: EVQLLESGGGLVQPGGSLRLSCAASGFTFDDYGMSWVRQVPGKGLEWVSLISWDGGSTYYADSVKGRFTISRDNSKNTLYLQMNSLRAEDTAVYYCARPSGAYPTPFDNWGQGTLVTV
chain 2: not shown
Kd [7]: 20 nM

B10: he.06.275-1 (antibody, V domains shown)
VH: B11 VH
VL: B11 VL with A43T, K45N
notes: Human Engineered
Kd [1]: 0.5 nM | Kd (cynomolgus PRLR ECD [2]): 1.6 nM

B14: XPA.06.131 (Fc fusion)
chain 1: EVQLLESGGGLVQPGGSLRLSCAASGFTFNSYPVHWVRQAPGKGLEWVAVISYDGNTKYYADSVKGRFTISRDNSKNTLYLQMNSLRAEDTAVYYCARDNPPFDYWGQGTLATV
chain 2: QSVLTQPPSASGTPGQRVTISCSGSSSNIGNNYVSWYQQLPGTAPKLLIYDNNNRPSGVPDRFSGSKSGTSASLAISGLRSEDEADYYCEAWDDTLNGPHVVFGGGTKLTVL
Kd [8]: 2.1 nM | koff [8]: 7.3e-05 s⁻¹ | kon [8]: 34000 M⁻¹ s⁻¹
